Laboratory results: US8497352B2, “Use of Wnt5-α peptide derivates for the treatment of melanoma and gastric cancer” (Wntresearch AB, priority 2008, dated 2013)

What was measured:
Assay type in all cases: cell-based, human
A2058 melanoma cells [1] = experiment: Wound-healing assay (migration), A2058 cells; details: 0.2 μg/ml Wnt-5a, serum-free medium
Method: Cells were plated in 12 well plates and allowed to grow into a confluent layer in complete RPMI (for A2058 cells) or complete McCoy's 5A medium (for HTB63 cells). As indicated, cells were pre-incubated with the Box5 peptide (100 μM) or control solvent for 40 min with continuous agitation. A wound was then inflicted by making a scratch through the confluent layer of cells with a pipette tip. During the migration period of the assay, cells were incubated either in serum-free medium or in the case of HTB63 cells in their own serum-free-conditioned medium collected from cells cultured for 48 h and used within 2 days after collection. The exact conditions of each experiment are described above. To avoid loss of activity, cell medium was changed after 24 hours. A picture for each scratch was taken in the same area of cells at 0, 16, 24, 40 and 48 hours, and wound healing was measured as percentage of wound area closed. For each experimental condition wound healing was analysed in triplicate. All data were based on 3 to 8 separate experiments as indicated.

A2058 melanoma cells [2] = experiment: BD Matrigel invasion chamber assay, A2058 cells; details: 0.2 μg/ml Wnt-5a, 24 hours
Method: Cell invasion was analyzed using the BD Matrigel™ invasion chamber assay (BD Biosciences, Bedford, Mass.). Prior to the initiation of each experiment, the cells were detached with Versene and re-suspended as single cells in serum-free RPMI medium. As indicated, cells were pre-incubated with the Box5 peptide (100 μM) or control solvent for 40 min with continuous agitation. An aliquot of the cell suspension containing 25,000 cells and 100 μM Box5 or control solvent was then added to the upper transwell chamber, and the lower chamber was filled with serum-containing (10%) medium. The invasion chambers were shaken horizontally for 5 min to ensure even distribution of the cells in suspension and subsequently across the membrane surface. The cells were allowed to invade for the periods of time indicated at 37° C. in a humidified atmosphere of 5% CO2. The medium was discarded and cells were fixed in 4% paraformaldehyde for 10 min. The cells were stained with 0.5% crystal violet in 20% methanol for 10 min and the non-invading cells on the inner side of the membrane were removed with a cotton-tipped applicator. The membrane was cut out of the chamber using a scalpel blade and the stained cells on the lower chamber side of the membrane were counted.

A2058 melanoma cells [3] = experiment: Cell adhesion assay, A2058 cells; details: recombinant Wnt-5a, 60 min adhesion
Method: Cells pre-treated and stimulated as described below were detached with Versene, re-suspended in serum-free RPMI medium and samples containing 30,000 cells from each treatment group were added to each well of a 96-well plate The cells were allowed to adhere for 60 min at 37° C. in a humidified atmosphere of 5% carbon dioxide after which the non-adherent cells were washed away with PBS. The adherent cells were fixed in 1% glutaraldehyde for 10 min at room temperature and then stained with 0.5% crystal violet in 20% methanol for 10 min. Finally the stain from each group of cells was dissolved in 50% acetic acid. The amount of dissolved stain from each well was thereafter measured in a Fluostar plate reader (BMG Lab Technologies GmbH, Offenberg, Germany) at 544 nm. The individual samples from each separate experiment were analysed in quadruplicate and the accumulated data were based on 5 separate experiments. The results are illustrated in FIG. 4. • A) A2058 melanoma cells were stimulated with the indicated concentrations of Wnt-5a, detached with Versene and resuspended as single cells in serum-free medium in the presence or absence of recombinant Wnt-5a at the indicated concentrations. Cells were then allowed to adhere in a 96-well plate. After a period of 60 min the non-adherent cells were washed away while the adherent cells were stained and their number determined. This number is presented as a percentage of the control (no Wnt-5a) stimulation (FIG. 4A) • B) A2058 melanoma cells were cultured to confluence in a 12-well plate after which a scratch was inflicted in each well, the medium was changed to fresh serum-free medium lacking (closed circles) or containing 0.2 μg/ml Wnt-5a (open squares). (FIG. 4B) • C) A2058 melanoma cells were cultured to confluence in a 12-well plate after which a scratch was inflicted to each well, the medium was changed to fresh serum-free medium in the absence of any additive (closed circle), the presence of 0.2 μg/ml Wnt-5a alone (open squares) or the presence of 0.2 μg/ml Wnt-5a with 100 μM Box5 (open triangle). (FIG. 4C) • D) HTB63 melanoma cells were cultured to confluence in a 12-well dish after which a scratch was inflicted to each well, the medium was changed to fresh serum-free medium (closed circle), conditioned medium (open squares) or conditioned medium supplemented with 100 μM Box5 (open triangle). To record changes in migration in panels B-D, a picture was taken from each scratch/well from the same area of cells after 0, 16, 24, 40 or 48 hours, and the wound-healing was expressed as percentage of wound area closed. […] The cells were then allowed to invade for 24 hours after which the attached cells on the lower side of the membrane were counted. […]

B1: Wnt-5a: human recombinant Wnt-5a protein from R&D Systems (protein, UniProt P41221 62-380, looked up)
Protein Wnt-5a: IIGAQPLCSQLAGLSQGQKKLCHLYQDHMQYIGEGAKTGIKECQYQFRHRRWNCSTVDNTSVFGRVMQIGSRETAFTYAVSAAGVVNAMSRACREGELSTCGCSRAARPKDLPRDWLWGGCGDNIDYGYRFAKEFVDARERERIHAKGSYESARILMNLHNNEAGRRTVYNLADVACKCHGVSGSCSLKTCWLQLADFRKVGDALKEKYDSAAAMRLNSRGKLVQVNSRFNSPTTQDLVYIDPSPDYCVRNESTGSLGTQGRLCNKTSEGMDGCELMCCGRGYDQFKTVQTERCHCKFHWCCYVKCKKCTEIVDQFVCK
- Effect on migration of A2058 cells (A2058 melanoma cells [1]): increased
- Effect on invasion of A2058 cells (A2058 melanoma cells [2]): stimulate
- Concentration giving maximal effect on adhesion of A2058 cells (A2058 melanoma cells [3]): 0.2 µg/mL
- Effect on adhesive capacity of A2058 cells (A2058 melanoma cells [3]): enhanced
